In paper PMC7937191 (Biochemical and biophysical research communications, 2020):

B1: α1a-AR-EYFP (α1a-adrenergic receptor with enhanced yellow fluorescent protein at the C-terminus) (receptor, UniProt P35348 1-466, looked up)
chain: MVFLSGNASDSSNCTQPPAPVNISKAILLGVILGGLILFGVLGNILVILSVACHRHLHSVTHYYIVNLAVADLLLTSTVLPFSAIFEVLGYWAFGRVFCNIWAAVDVLCCTASIMGLCIISIDRYIGVSYPLRYPTIVTQRRGLMALLCVWALSLVISIGPLFGWRQPAPEDETICQINEEPGYVLFSALGSFYLPLAIILVMYCRVYVVAKRESRGLKSGLKTDKSDSEQVTLRIHRKNAPAGGSGMASAKTKTHFSVRLLKFSREKKAAKTLGIVVGCFVLCWLPFFLVMPIGSFFPDFKPSETVFKIVFWLGYLNSCINPIIYPCSSQEFKKAFQNVLRIQCLCRKQSSKHALGYTLHPPSQAVEGQHKDMVRIPVGSRETFYRISKTDGVCEWKFFSSMPRGSARITVSKDQSSCTTARVRSKSFLQVCCCVGPSTPSLDKNHQVPTIKVHTISLSENGEEV
B2: α1b-AR-EYFP (α1b-adrenergic receptor with enhanced yellow fluorescent protein at the C-terminus) (receptor, UniProt P35368 1-520, looked up)
chain: MNPDLDTGHNTSAPAHWGELKNANFTGPNQTSSNSTLPQLDITRAISVGLVLGAFILFAIVGNILVILSVACNRHLRTPTNYFIVNLAMADLLLSFTVLPFSAALEVLGYWVLGRIFCDIWAAVDVLCCTASILSLCAISIDRYIGVRYSLQYPTLVTRRKAILALLSVWVLSTVISIGPLLGWKEPAPNDDKECGVTEEPFYALFSSLGSFYIPLAVILVMYCRVYIVAKRTTKNLEAGVMKEMSNSKELTLRIHSKNFHEDTLSSTKAKGHNPRSSIAVKLFKFSREKKAAKTLGIVVGMFILCWLPFFIALPLGSLFSTLKPPDAVFKVVFWLGYFNSCLNPIIYPCSSKEFKRAFVRILGCQCRGRGRRRRRRRRRLGGCAYTYRPWTRGGSLERSQSRKDSLDDSGSCLSGSQRTLPSASPSPGYLGRGAPPPVELCAFPEWKAPGALLSLPAPEPPGRRGRHDSGPLFTFKLLTEPESPGTDGGASNGGCEAAADVANGQPGFKSNMPLAPGQF
B3: α1d-AR-EYFP (α1d-adrenergic receptor with enhanced yellow fluorescent protein at the C-terminus) (receptor, UniProt P25100 1-572, looked up)
chain: MTFRDLLSVSFEGPRPDSSAGGSSAGGGGGSAGGAAPSEGPAVGGVPGGAGGGGGVVGAGSGEDNRSSAGEPGSAGAGGDVNGTAAVGGLVVSAQGVGVGVFLAAFILMAVAGNLLVILSVACNRHLQTVTNYFIVNLAVADLLLSATVLPFSATMEVLGFWAFGRAFCDVWAAVDVLCCTASILSLCTISVDRYVGVRHSLKYPAIMTERKAAAILALLWVVALVVSVGPLLGWKEPVPPDERFCGITEEAGYAVFSSVCSFYLPMAVIVVMYCRVYVVARSTTRSLEAGVKRERGKASEVVLRIHCRGAATGADGAHGMRSAKGHTFRSSLSVRLLKFSREKKAAKTLAIVVGVFVLCWFPFFFVLPLGSLFPQLKPSEGVFKVIFWLGYFNSCVNPLIYPCSSREFKRAFLRLLRCQCRRRRRRRPLWRVYGHHWRASTSGLRQDCAPSSGDAPPGAPLALTALPDPDPEPPGTPEMQAPVASRRKPPSAFREWRLLGPFRRPTTQLRAKVSSLSHKIRAGGAQRAEAACAQRSEVEAVSLGVPHEVAEGATCQAYELADYSNLRETDI

molecular target: CXCR4-RLuc (chemokine (C-X-C motif) receptor 4 with Renilla reniformis luciferase at the C-terminus) (UniProt P61073 1-352); test: FRET or BRET
Sequence (P61073 whole entry): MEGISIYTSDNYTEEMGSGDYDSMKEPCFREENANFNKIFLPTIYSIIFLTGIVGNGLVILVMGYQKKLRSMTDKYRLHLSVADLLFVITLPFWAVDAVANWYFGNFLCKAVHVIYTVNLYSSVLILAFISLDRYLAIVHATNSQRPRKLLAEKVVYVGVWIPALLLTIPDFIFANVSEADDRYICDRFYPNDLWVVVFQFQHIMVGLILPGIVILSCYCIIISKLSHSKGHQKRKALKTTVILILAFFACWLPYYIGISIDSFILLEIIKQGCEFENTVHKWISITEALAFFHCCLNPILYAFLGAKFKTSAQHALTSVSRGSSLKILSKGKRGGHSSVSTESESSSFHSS

Binder | BRET50 (EYFP/Lum)
B1 | 0.055 EYFP/Lum
B2 | 0.072 EYFP/Lum
B3 | 0.051 EYFP/Lum
